The values below come from US20220001020A1.

The target of this assay is CD123 (human) (UniProt P26951). Briefly: cell-based or functional assay.
UniProt P26951, sequence (P26951 19-378): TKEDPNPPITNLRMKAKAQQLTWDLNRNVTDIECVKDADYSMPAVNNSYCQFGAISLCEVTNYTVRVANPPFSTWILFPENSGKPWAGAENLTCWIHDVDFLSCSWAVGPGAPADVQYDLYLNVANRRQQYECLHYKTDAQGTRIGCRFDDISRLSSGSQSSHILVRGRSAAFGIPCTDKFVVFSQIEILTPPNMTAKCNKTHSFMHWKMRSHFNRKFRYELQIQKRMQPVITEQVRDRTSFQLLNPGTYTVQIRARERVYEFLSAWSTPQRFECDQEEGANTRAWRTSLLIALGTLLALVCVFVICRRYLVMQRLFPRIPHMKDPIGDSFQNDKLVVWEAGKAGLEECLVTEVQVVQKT

“diphtheria toxin-human interleukin-3 conjugate (DT-IL3)” gave an IC50, cell viability assay of 4.8 nM.
